Residue numbers refer to the chain shown, from its start. In names and notes the source's numbering stands. Where a SMILES comes first, the peptide text is derived from it. Where no end group is shown, it is not given here. [ ]: non-standard residue; d: D form. The star is where a group is joined. Dansyl = CN(C)c1cccc2c(S(=O)(=O)*)cccc12; PhLac = O=C(O)[C@@H](O)Cc1ccccc1
Experiments:
[1] = molecular target: T1, Mint2 PARM 364-570 (Y524W, Y543E) (Homo sapiens, UniProt Q99767, Y524W/Y543E); test: biochemical
T1 sequence (Q99767 364-570 Y524W/Y543E): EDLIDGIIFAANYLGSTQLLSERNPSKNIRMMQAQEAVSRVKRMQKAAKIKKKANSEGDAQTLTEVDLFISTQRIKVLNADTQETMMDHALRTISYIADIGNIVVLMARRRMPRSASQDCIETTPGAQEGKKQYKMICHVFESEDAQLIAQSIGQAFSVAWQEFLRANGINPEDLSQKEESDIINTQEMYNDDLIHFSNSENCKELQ

Mint2 PARMWT 364-570 = Mint2 PARMWT 364-570 (Homo sapiens, UniProt Q99767); test: biochemical
Sequence of Mint2 PARMWT 364-570 (Q99767 364-570): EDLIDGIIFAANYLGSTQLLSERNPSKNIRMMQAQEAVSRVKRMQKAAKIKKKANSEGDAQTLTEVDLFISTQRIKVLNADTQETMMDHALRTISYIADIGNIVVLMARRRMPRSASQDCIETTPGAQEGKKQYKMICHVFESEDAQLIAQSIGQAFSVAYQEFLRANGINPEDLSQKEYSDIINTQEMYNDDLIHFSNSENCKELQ

[2] = molecular target: T2, Mint2 PARM 364-570 (Y524W, Y543A) (Homo sapiens, UniProt Q99767, Y524W/Y543A); test: biochemical
T2 sequence (Q99767 364-570 Y524W/Y543A): T1 sequence (Q99767 364-570 Y524W/Y543E) with E180A

[3] = molecular target: T3, Mint2 PTB 364-538 (without the ARM linker) (Homo sapiens, UniProt Q99767, Y524W); test: Stopped flow binding kinetics, APP peptides to PTB
T3 construct: made in house; host or cells: Escherichia coli BL21(DE3)pLysS
T3 sequence (Q99767 364-538 Y524W): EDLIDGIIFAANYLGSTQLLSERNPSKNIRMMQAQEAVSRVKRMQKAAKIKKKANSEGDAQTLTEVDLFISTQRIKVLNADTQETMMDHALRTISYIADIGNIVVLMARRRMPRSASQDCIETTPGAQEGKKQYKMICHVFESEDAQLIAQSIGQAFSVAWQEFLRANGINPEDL
Method: (§1) Kinetic binding rate constants were obtained using an upgraded SX17 stopped flow spectrometer (Applied Photophysics), and all experiments were conducted at 25 °C in 500 mM NaCl and 25 mM HEPES (pH 7.4). The relatively high NaCl concentration was used to improve the solubility of the proteins. The change in tryptophan fluorescence was measured using a band-pass filter (excitation at 280 nm and emission at 330 ± 30 nm) when mixing varying concentrations (2–50 μM) of the dansyl peptides with 1 μM protein or 0.5 μM semisynthetic proteins. […] For PTB variants, we used the kobs value from the fast kinetic phase for the analysis. […] We report the errors in kon and koff from the curve fitting. […] For these koff determinations, we report the standard error of the mean of three replicates. Φ values were defined as ΔΔGTS/ΔΔGeq, where ΔΔGTS = RT ln(kon^WT/kon^mut.) and ΔΔGeq = RT ln(Kd^mut./Keq^WT). Calculated coupling free energies were defined as ΔΔΔGEq = RT ln(Kd^mut.:WTKd^WT:mut./Kd^WT:WTKd^mut.:mut.) or ΔΔΔGTS = RT ln(kon^WT:WTkon^mut.:mut./kon^mut.:WTkon^WT:mut.) as previously described.[27] Propagated errors are reported.

Mint2 PTB 364-538 = Mint2 PTB 364-538 (Homo sapiens, UniProt Q99767, Y524W); test: biochemical
[4] = molecular target: T4, PARM-pWT (364-570; R455K, C483A, C501A, Y524W, C566A) (Homo sapiens, UniProt Q99767, C483A/C501A/C566A/R455K/Y524W); test: Stopped flow binding kinetics, APP A-to-E variants to PARM-pWT
T4 construct: made in house; host or cells: semisynthesis, three-segment approach (expressed fragments plus synthetic segment)
T4 sequence (Q99767 364-570 R455K/C483A/C501A/Y524W/C566A): T1 sequence (Q99767 364-570 Y524W/Y543E) with R92K, C120A, C138A, E180Y, C203A
Method: as §1

[5] = molecular target: T5, Mint2 PARM 364-570 (Y524W), pWT PARM (PTB domain and ARM linker) (Homo sapiens, UniProt Q99767, Y524W); test: Stopped flow binding kinetics, APP peptides to PARM (pseudo-wild type)
T5 construct: made in house; host or cells: Escherichia coli BL21(DE3)pLysS
T5 sequence (Q99767 364-570 Y524W): T1 sequence (Q99767 364-570 Y524W/Y543E) with E180Y
Method: as §1

[6] = molecular target: T2, Mint2 PARM 364-570 (Y524W, Y543A); test: Stopped flow binding kinetics, APP peptides to PARM^Y543A; set-up: made in house; host or cells: Escherichia coli BL21(DE3)pLysS
Method: as §1

[7] = molecular target: PTB without the ARM linker (Mint2 residues 364-538) (human, UniProt Q99767 364-538, Y524W); test: stopped-flow fluorescence kinetics; conditions: both partners purified
[8] = molecular target: pseudo-wild type (pWT) PARM domain of Mint2 (residues 364-570, Y524W) (human, UniProt Q99767 364-570, Y524W); test: stopped-flow fluorescence kinetics; conditions: both partners purified
Sequence of pseudo-wild type (pWT) PARM domain of Mint2 (residues 364-570, Y524W) (Q99767 364-570 Y524W): as the sequence (Q99767 364-570) above, with Y161W counted along it

PARM^Y543E = PARM^Y543E (human, UniProt Q99767 364-570, Y524W | Y543E); test: stopped-flow fluorescence kinetics; conditions: both partners purified
PARM^Y543A = PARM^Y543A (human, UniProt Q99767 364-570, Y524W | Y543A); test: stopped-flow fluorescence kinetics; conditions: both partners purified
Sequence of PARM^Y543A (Q99767 364-570 Y524W/Y543A): as the sequence (Q99767 364-570) above, with Y161W, Y180A counted along it

NGYENPTYKFFE [APPWT (12-mer)]
Ki [1]: 1100 nM
Ki (Mint2 PARMWT 364-570): 3200 nM
Ki [2]: 1100 nM

C[C@@H](O)[C@H](NC(=O)[C@@H]1CCCN1C(=O)[C@H](CC(N)=O)NC(=O)[C@H](CCC(=O)O)NC(=O)[C@H](Cc1ccccc1)NC(=O)CNC(=O)[C@H](CC(N)=O)NC(=O)CNC(=O)[C@H](CC(N)=O)NC(=O)[C@H](CC(N)=O)NS(=O)(=O)c1cccc2c(N(C)C)cccc12)C(=O)N[C@@H](Cc1ccc(O)cc1)C(=O)N[C@@H](CCCCN)C(=O)N[C@@H](Cc1ccccc1)C(=O)N[C@@H](Cc1ccccc1)C(=O)N[C@@H](CCC(=O)O)C(=O)O [Peptide Y757F]
Kd [3]: 600 nM

C[C@H](NC(=O)[C@H](Cc1ccc(O)cc1)NC(=O)[C@@H](NC(=O)[C@@H]1CCCN1C(=O)[C@H](CC(N)=O)NC(=O)[C@H](CCC(=O)O)NC(=O)[C@H](Cc1ccc(O)cc1)NC(=O)CNC(=O)[C@H](CC(N)=O)NC(=O)CNC(=O)[C@H](CC(N)=O)NC(=O)[C@H](CC(N)=O)NS(=O)(=O)c1cccc2c(N(C)C)cccc12)[C@@H](C)O)C(=O)N[C@@H](Cc1ccccc1)C(=O)N[C@@H](Cc1ccccc1)C(=O)N[C@@H](CCC(=O)O)C(=O)O [Peptide K763A]
Ki (Mint2 PTB 364-538): 800 nM

C[C@@H](O)[C@H](NC(=O)[C@@H]1CCCN1C(=O)[C@H](CC(N)=O)NC(=O)[C@H](CCC(=O)O)NC(=O)[C@H](Cc1ccc(O)cc1)NC(=O)CNC(=O)[C@H](CC(N)=O)NC(=O)CNC(=O)[C@H](CC(N)=O)NC(=O)[C@H](CC(N)=O)NS(=O)(=O)c1cccc2c(N(C)C)cccc12)C(=O)N[C@@H](Cc1ccc(O)cc1)C(=O)N[C@@H](CCCCN)C(=O)N[C@@H](Cc1ccccc1)C(=O)O[C@@H](Cc1ccccc1)C(=O)N[C@@H](CCC(=O)O)C(=O)O [Peptide F765φ] (Dansyl-NNGNGYENPTYKF[PhLac]E-OH; N-terminus and C-terminus assumed)
Kd [4]: 40000 ± 9000 nM
koff [4]: 27 s⁻¹
F (Φ value, ΔΔGTS/ΔΔGeq) ([4]; APP A-to-E variant vs Dansyl-APPWT): ~0
kon ([4]; pH 7.4): 690000 M⁻¹ s⁻¹

C[C@@H](O)[C@H](NC(=O)[C@@H]1CCCN1C(=O)[C@H](CC(N)=O)NC(=O)[C@H](CCC(=O)O)NC(=O)[C@H](Cc1ccc(O)cc1)NC(=O)CNC(=O)[C@H](CC(N)=O)NC(=O)CNC(=O)[C@H](CC(N)=O)NC(=O)[C@H](CC(N)=O)NS(=O)(=O)c1cccc2c(N(C)C)cccc12)C(=O)N[C@@H](Cc1ccccc1)C(=O)N[C@@H](CCCCN)C(=O)N[C@@H](Cc1ccccc1)C(=O)N[C@@H](Cc1ccccc1)C(=O)N[C@@H](CCC(=O)O)C(=O)O [Peptide Y762F]
Kd [5]: 4000 nM

C[C@@H](O)[C@H](NC(=O)[C@@H]1CCCN1C(=O)[C@H](CC(N)=O)NC(=O)[C@H](CCC(=O)O)NC(=O)[C@H](Cc1ccc(O)cc1)NC(=O)CNC(=O)[C@H](CC(N)=O)NC(=O)CNC(=O)[C@H](CC(N)=O)NC(=O)[C@H](CC(N)=O)NS(=O)(=O)c1cccc2c(N(C)C)cccc12)C(=O)N[C@@H](Cc1ccc(O)cc1)C(=O)NCC(=O)N[C@@H](Cc1ccccc1)C(=O)N[C@@H](Cc1ccccc1)C(=O)N[C@@H](CCC(=O)O)C(=O)O [Peptide K763G]
Kd [6]: 10000 ± 300 nM

Dansyl-NNG-NGψENPTYKFFE [Peptide Y757ψ, dansyl-APP peptide with amide-to-ester backbone modification at Y757]
kinetic transient in the stopped flow experiment ([4]; most likely due to a kobs outside the range of the instrument (>300 s^–1)): did not give a kinetic transient

Dansyl-NGYENPTYKAFE [dansyl-APP F764A]
binding result [7]: binds
binding result [8]: binds
binding result (PARM^Y543E): binds
binding result (PARM^Y543A): binds

Dansyl-NGYENPTYGFFE [dansyl-APP K763G]
binding result [7]: binds
binding result [8]: binds
binding result (PARM^Y543E): binds
binding result (PARM^Y543A): binds

Dansyl-NGYENPTYKGFE [dansyl-APP F764G]
binding result [7]: binds
binding result [8]: binds
binding result (PARM^Y543E): binds
binding result (PARM^Y543A): binds

Dansyl-NGFENPTYKFFE [dansyl-APP Y757F]
binding result [7]: binds
binding result [8]: binds
binding result (PARM^Y543E): binds
binding result (PARM^Y543A): binds

Dansyl-NGYENPTYAFFE [dansyl-APP K763A]
binding result [7]: binds
binding result [8]: binds
binding result (PARM^Y543E): binds
binding result (PARM^Y543A): binds

Dansyl-NGYENATYKFFE [dansyl-APP P760A]
binding result [7]: binds
binding result [8]: binds
binding result (PARM^Y543E): binds
binding result (PARM^Y543A): binds

Dansyl-NGYENGTYKFFE [dansyl-APP P760G]
binding result [7]: binds
binding result [8]: binds
binding result (PARM^Y543E): binds
binding result (PARM^Y543A): binds

Dansyl-NGYENPTYKFGE [dansyl-APP F765G]
binding result [7]: binds
binding result [8]: binds
binding result (PARM^Y543E): binds
binding result (PARM^Y543A): binds

Dansyl-NGYENPTYKFAE [dansyl-APP F765A]
binding result [7]: binds
binding result [8]: binds
binding result (PARM^Y543E): binds
binding result (PARM^Y543A): binds

Dansyl-NGYENPTFKFFE [dansyl-APP Y762F]
binding result [7]: binds
binding result [8]: binds
binding result (PARM^Y543E): binds
binding result (PARM^Y543A): binds

From publication PMC8291497 (ACS Chemical Biology, 2021)
